Experimental data from doi:10.1101/2020.01.02.893370 (bioRxiv, 2020).

Assays:
[1] = biological target: sigma70 (RpoD);RNAP core enzyme wild type (alpha2 beta beta' omega) (Escherichia coli;Escherichia coli, UniProt P00579;P0A7Z4;P0A8V2;P0A8T7;P0A800 1-613;1-329;1-1342;1-1407;1-91, |); assay: DNase I footprinting
[2] = biological target: E. coli RNA polymerase β′ subunit (E. coli, UniProt P0A8T7 1-1407); assay: cryo-EM structure
Sequence of E. coli RNA polymerase β′ subunit (P0A8T7 whole entry): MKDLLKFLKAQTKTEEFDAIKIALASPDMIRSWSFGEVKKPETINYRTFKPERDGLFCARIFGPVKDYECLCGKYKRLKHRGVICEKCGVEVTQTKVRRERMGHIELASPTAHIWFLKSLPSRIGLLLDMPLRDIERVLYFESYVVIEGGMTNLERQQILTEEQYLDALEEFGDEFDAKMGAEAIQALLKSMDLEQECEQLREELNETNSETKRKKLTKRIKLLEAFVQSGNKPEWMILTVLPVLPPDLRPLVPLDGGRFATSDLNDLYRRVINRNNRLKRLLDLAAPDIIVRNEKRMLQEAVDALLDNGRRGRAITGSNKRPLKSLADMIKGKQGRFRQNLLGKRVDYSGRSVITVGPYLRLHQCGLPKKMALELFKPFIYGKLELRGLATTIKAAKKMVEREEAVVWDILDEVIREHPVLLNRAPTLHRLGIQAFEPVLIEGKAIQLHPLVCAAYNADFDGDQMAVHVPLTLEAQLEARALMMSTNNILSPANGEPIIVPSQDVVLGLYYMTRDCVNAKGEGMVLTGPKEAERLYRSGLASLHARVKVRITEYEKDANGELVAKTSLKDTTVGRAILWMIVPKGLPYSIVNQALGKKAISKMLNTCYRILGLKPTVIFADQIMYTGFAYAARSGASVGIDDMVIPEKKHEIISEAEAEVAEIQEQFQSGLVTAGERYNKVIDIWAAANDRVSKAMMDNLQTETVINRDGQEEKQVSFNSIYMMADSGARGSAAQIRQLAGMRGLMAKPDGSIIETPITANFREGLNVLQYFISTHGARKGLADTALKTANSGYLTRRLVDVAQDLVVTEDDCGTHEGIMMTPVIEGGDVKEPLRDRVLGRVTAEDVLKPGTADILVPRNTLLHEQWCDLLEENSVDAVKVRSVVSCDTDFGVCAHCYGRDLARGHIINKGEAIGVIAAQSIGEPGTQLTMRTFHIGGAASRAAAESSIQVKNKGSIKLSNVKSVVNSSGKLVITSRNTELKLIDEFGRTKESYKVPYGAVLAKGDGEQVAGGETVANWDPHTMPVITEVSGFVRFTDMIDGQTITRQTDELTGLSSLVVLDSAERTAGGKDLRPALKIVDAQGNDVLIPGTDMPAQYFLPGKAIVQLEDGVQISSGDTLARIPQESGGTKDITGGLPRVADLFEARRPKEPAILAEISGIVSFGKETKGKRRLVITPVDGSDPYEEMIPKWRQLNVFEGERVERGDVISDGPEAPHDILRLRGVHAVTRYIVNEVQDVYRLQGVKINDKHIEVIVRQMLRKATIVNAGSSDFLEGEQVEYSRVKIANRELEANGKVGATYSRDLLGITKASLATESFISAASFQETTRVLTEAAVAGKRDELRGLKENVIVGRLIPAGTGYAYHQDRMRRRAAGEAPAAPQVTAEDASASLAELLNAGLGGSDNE

Sequence of sigma70 (RpoD);RNAP core enzyme wild type (alpha2 beta beta' omega) (P00579 whole entry, chain 1 of 4): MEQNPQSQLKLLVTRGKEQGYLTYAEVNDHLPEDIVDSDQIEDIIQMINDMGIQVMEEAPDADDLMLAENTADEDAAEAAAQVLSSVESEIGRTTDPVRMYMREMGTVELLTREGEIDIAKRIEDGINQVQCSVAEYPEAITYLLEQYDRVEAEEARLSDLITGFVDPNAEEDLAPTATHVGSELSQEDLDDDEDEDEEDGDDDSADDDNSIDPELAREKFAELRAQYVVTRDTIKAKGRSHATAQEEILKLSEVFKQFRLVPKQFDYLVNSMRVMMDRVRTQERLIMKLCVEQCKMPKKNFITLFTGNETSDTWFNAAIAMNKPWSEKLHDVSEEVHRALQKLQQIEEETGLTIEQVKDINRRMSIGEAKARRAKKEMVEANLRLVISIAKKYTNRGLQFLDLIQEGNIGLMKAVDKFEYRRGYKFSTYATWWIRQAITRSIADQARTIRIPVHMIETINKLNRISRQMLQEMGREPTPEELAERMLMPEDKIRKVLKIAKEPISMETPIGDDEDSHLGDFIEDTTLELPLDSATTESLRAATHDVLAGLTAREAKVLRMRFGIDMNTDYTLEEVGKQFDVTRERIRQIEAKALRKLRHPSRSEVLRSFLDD
Sequence of sigma70 (RpoD);RNAP core enzyme wild type (alpha2 beta beta' omega) (P0A7Z4 whole entry, chain 2 of 4): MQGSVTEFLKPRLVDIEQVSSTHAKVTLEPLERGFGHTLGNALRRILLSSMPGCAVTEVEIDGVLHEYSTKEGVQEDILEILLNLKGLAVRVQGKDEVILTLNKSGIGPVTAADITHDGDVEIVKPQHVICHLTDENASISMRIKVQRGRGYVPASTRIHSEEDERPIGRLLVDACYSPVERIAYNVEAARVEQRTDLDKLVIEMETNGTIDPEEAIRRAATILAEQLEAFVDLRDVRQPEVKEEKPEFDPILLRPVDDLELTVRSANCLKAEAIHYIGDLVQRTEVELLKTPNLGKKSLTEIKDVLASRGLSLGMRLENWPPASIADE
Sequence of sigma70 (RpoD);RNAP core enzyme wild type (alpha2 beta beta' omega) (P0A8V2 whole entry, chain 3 of 4): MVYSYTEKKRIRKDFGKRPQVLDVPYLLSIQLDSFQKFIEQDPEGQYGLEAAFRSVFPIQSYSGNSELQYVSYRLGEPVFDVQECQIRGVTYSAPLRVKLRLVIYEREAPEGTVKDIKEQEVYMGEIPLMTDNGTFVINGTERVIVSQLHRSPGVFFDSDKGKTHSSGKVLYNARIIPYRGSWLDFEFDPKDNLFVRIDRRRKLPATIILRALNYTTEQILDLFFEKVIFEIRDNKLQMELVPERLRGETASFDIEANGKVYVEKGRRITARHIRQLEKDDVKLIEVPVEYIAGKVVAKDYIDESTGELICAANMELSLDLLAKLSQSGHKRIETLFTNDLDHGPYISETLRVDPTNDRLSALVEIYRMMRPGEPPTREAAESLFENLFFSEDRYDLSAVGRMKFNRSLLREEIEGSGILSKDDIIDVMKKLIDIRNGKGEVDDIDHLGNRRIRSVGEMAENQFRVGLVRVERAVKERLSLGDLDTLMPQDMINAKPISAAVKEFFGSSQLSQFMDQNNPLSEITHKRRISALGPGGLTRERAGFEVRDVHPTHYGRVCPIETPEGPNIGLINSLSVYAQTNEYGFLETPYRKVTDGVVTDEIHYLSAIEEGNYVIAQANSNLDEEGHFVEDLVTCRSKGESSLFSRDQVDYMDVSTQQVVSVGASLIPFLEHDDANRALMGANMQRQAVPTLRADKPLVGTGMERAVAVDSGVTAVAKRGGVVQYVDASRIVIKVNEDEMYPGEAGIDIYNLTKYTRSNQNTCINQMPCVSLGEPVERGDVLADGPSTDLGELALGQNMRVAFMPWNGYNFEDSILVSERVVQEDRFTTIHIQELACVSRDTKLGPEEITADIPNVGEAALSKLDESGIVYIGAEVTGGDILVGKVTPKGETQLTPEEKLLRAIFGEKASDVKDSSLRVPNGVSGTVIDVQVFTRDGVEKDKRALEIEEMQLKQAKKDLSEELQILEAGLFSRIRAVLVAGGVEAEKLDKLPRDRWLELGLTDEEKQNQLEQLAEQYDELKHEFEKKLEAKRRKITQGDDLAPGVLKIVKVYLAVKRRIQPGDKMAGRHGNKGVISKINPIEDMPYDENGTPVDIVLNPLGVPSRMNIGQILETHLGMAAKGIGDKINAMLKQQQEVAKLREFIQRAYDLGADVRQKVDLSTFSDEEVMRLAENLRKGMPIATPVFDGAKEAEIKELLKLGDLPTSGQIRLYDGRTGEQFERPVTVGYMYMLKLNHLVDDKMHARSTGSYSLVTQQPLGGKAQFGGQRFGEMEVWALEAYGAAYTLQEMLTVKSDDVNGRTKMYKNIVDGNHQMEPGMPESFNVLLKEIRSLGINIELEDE
Sequence of sigma70 (RpoD);RNAP core enzyme wild type (alpha2 beta beta' omega) (P0A800 whole entry, chain 5 of 4): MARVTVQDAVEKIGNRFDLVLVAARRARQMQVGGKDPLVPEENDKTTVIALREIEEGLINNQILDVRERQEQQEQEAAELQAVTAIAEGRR

| Binder | binding result [1] | binding result [2] |
| --- | --- | --- |
| lacUV5p (dsDNA) DNA 1: CCCGCCGACAGGTTTCCCGACTGGAAAGCGGGCAGTGAGCGCAACGCAATTAATGTGAGTTAGCTCACTCATTAGGCACCCCAGGCTTTACACTTTATGCTTCCGGCTCGTATAATGTGTGGAATTGTGAGCGGATAACAATTTCACACAGGAAACAGCTATGACCATGGGCGCGG DNA 2: CCGCGCCCATGGTCATAGCTGTTTCCTGTGTGAAATTGTTATCCGCTCACAATTCCACACATTATACGAGCCGGAAGCATAAAGTGTAAAGCCTGGGGTGCCTAATGAGTGAGCTAACTCACATTAATTGCGTTGCGCTCACTGCCCGCTTTCCAGTCGGGAAACCTGTCGGCGGG | binds | – |
| E. coli σ^28 factor (natural protein, UniProt P0AEM6 1-239, looked up) MNSLYTAEGVMDKHSLWQRYVPLVRHEALRLQVRLPASVELDDLLQAGGIGLLNAVERYDALQGTAFTTYAVQRIRGAMLDELRSRDWVPRSVRRNAREVAQAIGQLEQELGRNATETEVAERLGIDIADYRQMLLDTNNSQLFSYDEWREEHGDSIELVTDDHQRENPLQQLLDSNLRQRVMEAIETLPEREKLVLTLYYQEELNLKEIGAVLEVGESRVSQLHSQAIKRLRTKLGKL | – | binds |
